Experiments:
[1] = target: SfABCc2 (Spodoptera frugiperda); assay: cell-based or functional assay
[2] = target: Spodoptera_frugiperda_ABC_transporter (Spodoptera frugiperda); assay: cell-based or functional assay
[3] = target: HzABCa7 (Helicoverpa zea); assay: cell-based or functional assay
[4] = target: SfABCa3 (Spodoptera frugiperda); assay: cell-based or functional assay
Cry3Aa = target: T1, Cry3Aa (Bacillus thuringiensis, UniProt P0A379 1-644); assay: yeast two-hybrid
T1 sequence: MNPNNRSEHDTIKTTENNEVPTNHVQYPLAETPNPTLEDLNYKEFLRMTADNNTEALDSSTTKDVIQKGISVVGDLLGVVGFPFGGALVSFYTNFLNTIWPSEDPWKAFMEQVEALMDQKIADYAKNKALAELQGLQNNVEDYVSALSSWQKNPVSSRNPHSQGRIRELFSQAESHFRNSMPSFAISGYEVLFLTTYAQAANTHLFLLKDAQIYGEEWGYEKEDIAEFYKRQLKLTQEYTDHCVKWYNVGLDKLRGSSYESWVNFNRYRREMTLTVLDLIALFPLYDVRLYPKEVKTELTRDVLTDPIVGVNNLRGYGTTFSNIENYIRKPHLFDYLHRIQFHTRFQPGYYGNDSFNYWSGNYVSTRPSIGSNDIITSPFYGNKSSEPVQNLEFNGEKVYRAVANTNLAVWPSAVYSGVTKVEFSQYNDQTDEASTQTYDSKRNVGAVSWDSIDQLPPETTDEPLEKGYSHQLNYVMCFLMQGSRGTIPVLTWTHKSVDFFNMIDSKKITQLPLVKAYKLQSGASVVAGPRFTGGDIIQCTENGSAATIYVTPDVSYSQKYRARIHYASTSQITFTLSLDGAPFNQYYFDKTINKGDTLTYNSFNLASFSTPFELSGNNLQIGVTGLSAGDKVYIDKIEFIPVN

## Cry1Ac as used in the Sf9 cytotoxicity assays (from UniProt P05068 29-623) (ligand)
[1]
  Sytox Green Fluresence, treatment (control buffer 645): 20700
[2]
  Sytox Green Fluresence, treatment (control buffer 645): 18600

## Cry2Ab as used in the Sf9 cytotoxicity assays (ligand)
[3]
  Sytox Green Fluresence, treatment (control buffer 5398): 55300
[4]
  Sytox Green Fluresence, treatment (control buffer 5398): 30600

B1: Aminopeptidase Fragment 5 (receptor)
chain: GFPVVNAVFNGKNVTFSQKRFLYTGNNNTQWYIPVTYRLSNSSSYETFWLAPNSSVTILNNLTDKDWLIVNDDSRGYYRVKYCKRLTQRIQSLLNQNHTQISELNRAQILDDSLNLARAGYIKYSEAFELLEYLKNETSYFPWFTTIKNMDYLVTRLGANTELGKRTNAMILDLISQISANISTTKWEEIDQVTTLKLQRVWADACKRGQASCISETKRLFQALRLNKTSVNPNIRDVVYCNALRNSNNIAADWEFLWNRLLISIHPQEDLYILLSLGCTTHKPYLTRLLDATINSTSVIKLQNLYTVWNSVGSASKEGLDLAFEYFVNNYKKIIEYYPDGISLLSQLANRFTTNAEVTKLQQFADRLEKNSTIRAVANSALTTARQNLQFRARIEDDLNDYFKIDNSGSSV
notes: Yeast two-hybrid construct; also called Aminopeptidase N fragment 5
Cry3Aa
  binding result: no binding
